Data as given in publication PMC4100148.

Key:
[1] = molecular target: SelP-H (His-rich domain of selenoprotein P), purified (human) (UniProt P49908); test: ITC; MicroCal iTC-200, 25 °C, Tris buffer (50 mM, pH 7.4); 1.3 mM Tub-C titrated into 228 μM SelP-H, 20 injections of 2 μL; sequential binding model (n = 2)
[2] = molecular target: CFP-SelP-H (His-rich domain of selenoprotein P fused to CFP) (human) (UniProt P49908); test: FRET or BRET; acceptor (receptor) photobleaching method; HEK293T cells co-transfected with CFP and YFP plasmids; ROI bleached at 515 nm, donor imaged at 405 nm excitation; E = 1 - I(prebleaching)/I(postbleaching)
[3] = molecular target: CFP-SelP' (Sec to Cys mutant of selenoprotein P fused to enhanced cyan fluorescence protein) (human) (UniProt P49908); test: FRET or BRET; sensitized emission method; HEK293T cells co-transfected with CFP (donor) and YFP (receptor) plasmids, confocal microscope 48 h after transfection, excitation 405 and 515 nm
[4] = molecular target: CFP-SelP' (Sec to Cys mutant of selenoprotein P fused to enhanced cyan fluorescence protein) (human) (UniProt P49908); test: FRET or BRET; acceptor (receptor) photobleaching method; HEK293T cells co-transfected with CFP and YFP plasmids; ROI bleached at 515 nm, donor imaged at 405 nm excitation; E = 1 - I(prebleaching)/I(postbleaching)

Tub-C (the last 42 residues of α-tubulin), purified (from UniProt Q71U36 1-451) (domain or fragment)
association constant K1 (sequential binding model, first site) [1]: 2100 M⁻¹
association constant K2 (sequential binding model, second site) [1]: 1500 M⁻¹
dH1 (sequential binding model, first site) [1]: -1.8 kcal/mol
dH2 (sequential binding model, second site) [1]: 6.9 kcal/mol
stoichiometry N [1]: 2

YFP-Tub-C (C-terminal domain of α-tubulin, the last 42 residues, fused to YFP) (from UniProt Q71U36 1-451) (domain or fragment)
FRET efficiency E [2]: 22.8%

YFP-Tub (α-tubulin fused to yellow fluorescence protein) (from UniProt Q71U36 1-451) (natural protein)
FRET efficiency E (average) [3]: 21.3%
FRET efficiency E (cell 1) [3]: 19.7%
FRET efficiency E (cell 2) [3]: 18.7%
FRET efficiency E (cell 3) [3]: 32.6%
FRET efficiency E (cell 4) [3]: 17.7%
FRET efficiency E (cell 5) [3]: 18%
FRET efficiency E (average) [4]: 21.8%
FRET efficiency E (cell 1) [4]: 17.6%
FRET efficiency E (cell 2) [4]: 14.1%
FRET efficiency E (cell 3) [4]: 12.2%
FRET efficiency E (cell 4) [4]: 31.5%
FRET efficiency E (cell 5) [4]: 20%
FRET efficiency E (cell 6) [4]: 26.7%
FRET efficiency E (cell 7) [4]: 19.2%
FRET efficiency E (cell 8) [4]: 17.9%
FRET efficiency E (cell 9) [4]: 35.6%
FRET efficiency E (cell 10) [4]: 20.2%
FRET efficiency E (cell 11) [4]: 25%
